Experimental data taken from the supplement of paper PMC10567573.

B1: STEAP1 (parent)
chain: WMLTRKQFGLLSFFFAVLHAIYSL
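Further: lentivirally expressed fusions sorted by FACS into six bins by GFP to DsRed ratio, PSI derived from sequencing read proportions per bin multiplied by bin number.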

Variants of: B1
Assay: protein stability index of a GFP-peptide fusion (GPS, HEK-293T) (PSI 1-6); higher = more stable
Details: c terminus: a fixed tail appended
With WMLTRKQFGLLSFFFKVLHAIYSL [A16K] the protein stability index was 1.46.
Variant WMLTRKQFGLLSFFFCVLHAIYSL [A16C] has a protein stability index of 1.69.
With WMLTRKQFGLLSFFFMVLHAIYSL [A16M] the protein stability index was 1.13.
Work on WMLTRKQFGLLSFFFWVLHAIYSL [A16W] yielded a protein stability index of 2.19.
Variant WMLTRKQFGLLSFFFTVLHAIYSL [A16T] has a protein stability index of 2.63.
With WMLTRKQFGLLSFFFDVLHAIYSL [A16D] the protein stability index was 2.07.
WMLTRKQFGLLSFFFVVLHAIYSL [A16V] showed a protein stability index of 1.51.
With WMLTRKQFGLLSFFFQVLHAIYSL [A16Q] the protein stability index was 1.52.
WMLTRKQFGLLSFFFIVLHAIYSL [A16I] showed a protein stability index of 1.77.
WMLTRKQFGLLSFFFNVLHAIYSL [A16N] showed a protein stability index of 1.88.
WMLTRKQFGLLSFFFYVLHAIYSL [A16Y] gave a protein stability index of 1.54.
For WMLTRKQFGLLSFFFHVLHAIYSL [A16H], the protein stability index was 1.76.
For WMLTRKQFGLLSFFFLVLHAIYSL [A16L], the protein stability index was 1.64.
For WMLTRKQFGLLSFFFSVLHAIYSL [A16S], the protein stability index was 1.45.
WMLTRKQFGLLSFFFPVLHAIYSL [A16P] showed a protein stability index of 1.59.
WMLTRKQFGLLSFFFFVLHAIYSL [A16F] gave a protein stability index of 1.93.
With WMLTRKQFGLLSFFFRVLHAIYSL [A16R] the protein stability index was 1.93.
With WMLTRKQFGLLSFFFGVLHAIYSL [A16G] the protein stability index was 1.77.
WMLTRKQFGLLSFFFEVLHAIYSL [A16E] showed a protein stability index of 1.67.
For WMLTRKQFGLLSFFFAVLVAIYSL [H19V], the protein stability index was 3.14.
For WMLTRKQFGLLSFFFAVLYAIYSL [H19Y], the protein stability index was 3.25.
Variant WMLTRKQFGLLSFFFAVLFAIYSL [H19F] has a protein stability index of 2.76.
Variant WMLTRKQFGLLSFFFAVLNAIYSL [H19N] has a protein stability index of 1.89.
WMLTRKQFGLLSFFFAVLMAIYSL [H19M] gave a protein stability index of 3.02.
WMLTRKQFGLLSFFFAVLPAIYSL [H19P] gave a protein stability index of 3.26.
Variant WMLTRKQFGLLSFFFAVLLAIYSL [H19L] has a protein stability index of 2.59.
With WMLTRKQFGLLSFFFAVLIAIYSL [H19I] the protein stability index was 2.58.
Work on WMLTRKQFGLLSFFFAVLTAIYSL [H19T] yielded a protein stability index of 2.67.
In the case of WMLTRKQFGLLSFFFAVLEAIYSL [H19E], the protein stability index is reported as 1.65.
With WMLTRKQFGLLSFFFAVLKAIYSL [H19K] the protein stability index was 2.16.
Work on WMLTRKQFGLLSFFFAVLSAIYSL [H19S] yielded a protein stability index of 2.34.
Work on WMLTRKQFGLLSFFFAVLRAIYSL [H19R] yielded a protein stability index of 1.74.
For WMLTRKQFGLLSFFFAVLAAIYSL [H19A], the protein stability index was 3.76.
In the case of WMLTRKQFGLLSFFFAVLWAIYSL [H19W], the protein stability index is reported as 3.67.
Variant WMLTRKQFGLLSFFFAVLQAIYSL [H19Q] has a protein stability index of 2.22.
For WMLTRKQFGLLSFFFAVLGAIYSL [H19G], the protein stability index was 2.77.
WMLTRKQFGLLSFFFAVLCAIYSL [H19C] gave a protein stability index of 2.94.
With WMLTRKQFGLLSFFFAVLDAIYSL [H19D] the protein stability index was 1.82.
Work on WMLTRKQFGLLSFFAAVLHAIYSL [F15A] yielded a protein stability index of 1.82.
WMLTRKQFGLLSFFWAVLHAIYSL [F15W] showed a protein stability index of 1.55.
WMLTRKQFGLLSFFSAVLHAIYSL [F15S] showed a protein stability index of 1.74.
Work on WMLTRKQFGLLSFFVAVLHAIYSL [F15V] yielded a protein stability index of 1.51.
For WMLTRKQFGLLSFFCAVLHAIYSL [F15C], the protein stability index was 1.77.
In the case of WMLTRKQFGLLSFFEAVLHAIYSL [F15E], the protein stability index is reported as 2.7.
WMLTRKQFGLLSFFPAVLHAIYSL [F15P] gave a protein stability index of 1.78.
For WMLTRKQFGLLSFFYAVLHAIYSL [F15Y], the protein stability index was 1.71.
For WMLTRKQFGLLSFFMAVLHAIYSL [F15M], the protein stability index was 1.62.
In the case of WMLTRKQFGLLSFFIAVLHAIYSL [F15I], the protein stability index is reported as 1.94.
WMLTRKQFGLLSFFHAVLHAIYSL [F15H] showed a protein stability index of 1.73.
Variant WMLTRKQFGLLSFFLAVLHAIYSL [F15L] has a protein stability index of 2.
With WMLTRKQFGLLSFFQAVLHAIYSL [F15Q] the protein stability index was 2.62.
Variant WMLTRKQFGLLSFFRAVLHAIYSL [F15R] has a protein stability index of 1.7.
Work on WMLTRKQFGLLSFFGAVLHAIYSL [F15G] yielded a protein stability index of 1.58.
For WMLTRKQFGLLSFFNAVLHAIYSL [F15N], the protein stability index was 1.4.
WMLTRKQFGLLSFFDAVLHAIYSL [F15D] gave a protein stability index of 2.78.
In the case of WMLTRKQFGLLSFFKAVLHAIYSL [F15K], the protein stability index is reported as 1.58.
Work on WMLTRKQFGLLSFFTAVLHAIYSL [F15T] yielded a protein stability index of 1.32.
WMLTRKQFGLLSFFFAVLHAIYEL [S23E] showed a protein stability index of 1.49.
In the case of WMLTRKQFGLLSFFFAVLHAIYAL [S23A], the protein stability index is reported as 1.36.
For WMLTRKQFGLLSFFFAVLHAIYDL [S23D], the protein stability index was 1.95.
In the case of WMLTRKQFGLLSFFFAVLHAIYCL [S23C], the protein stability index is reported as 1.75.
Variant WMLTRKQFGLLSVFFAVLHAIYSL [F13V] has a protein stability index of 3.35.
WMLTRKQFGLLSAFFAVLHAIYSL [F13A] showed a protein stability index of 3.27.
For WMLTRKQFGLLSQFFAVLHAIYSL [F13Q], the protein stability index was 1.78.
For WMLTRKQFGLLSMFFAVLHAIYSL [F13M], the protein stability index was 2.13.
In the case of WMLTRKQFGLLSIFFAVLHAIYSL [F13I], the protein stability index is reported as 2.11.
Variant WMLTRKQFGLLSCFFAVLHAIYSL [F13C] has a protein stability index of 2.02.
With WMLTRKQFGLLSHFFAVLHAIYSL [F13H] the protein stability index was 3.2.
In the case of WMLTRKQFGLLSWFFAVLHAIYSL [F13W], the protein stability index is reported as 1.67.
WMLTRKQFGLLSEFFAVLHAIYSL [F13E] gave a protein stability index of 4.58.
With WMLTRKQFGLLSTFFAVLHAIYSL [F13T] the protein stability index was 2.69.
With WMLTRKQFGLLSPFFAVLHAIYSL [F13P] the protein stability index was 1.95.
WMLTRKQFGLLSGFFAVLHAIYSL [F13G] showed a protein stability index of 2.25.
In the case of WMLTRKQFGLLSYFFAVLHAIYSL [F13Y], the protein stability index is reported as 1.95.
WMLTRKQFGLLSKFFAVLHAIYSL [F13K] gave a protein stability index of 2.38.
WMLTRKQFGLLSLFFAVLHAIYSL [F13L] gave a protein stability index of 2.65.
In the case of WMLTRKQFGLLSRFFAVLHAIYSL [F13R], the protein stability index is reported as 2.44.
Variant WMLTRKQFGLLSFFFAVLHAVYSL [I21V] has a protein stability index of 2.18.
Work on WMLTRKQFGLLSFFFAVLHALYSL [I21L] yielded a protein stability index of 3.18.
WMLTRKQFGLLSFFFAVLHAPYSL [I21P] gave a protein stability index of 3.02.
WMLTRKQFGLLSFFFAVLHANYSL [I21N] showed a protein stability index of 2.81.
For WMLTRKQFGLLSFFFAVLHAYYSL [I21Y], the protein stability index was 1.95.
In the case of WMLTRKQFGLLSFFFAVLHAMYSL [I21M], the protein stability index is reported as 1.66.
Work on WMLTRKQFGLLSFFFAVLHADYSL [I21D] yielded a protein stability index of 3.17.
Work on WMLTRKQFGLLSFFFAVLHAKYSL [I21K] yielded a protein stability index of 2.41.
Variant WMLTRKQFGLLSFFFAVLHAFYSL [I21F] has a protein stability index of 2.26.
Work on WMLTRKQFGLLSFFFAVLHAAYSL [I21A] yielded a protein stability index of 3.66.
In the case of WMLTRKQFGLLSFFFAVLHASYSL [I21S], the protein stability index is reported as 2.16.
WMLTRKQFGLLSFFFAVLHAWYSL [I21W] showed a protein stability index of 1.63.
With WMLTRKQFGLLSFFFAVLHATYSL [I21T] the protein stability index was 1.05.
Work on WMLTRKQFGLLSFFFAVLHAEYSL [I21E] yielded a protein stability index of 4.75.
With WMLTRKQFGLLSFFFAVLHARYSL [I21R] the protein stability index was 3.01.
Work on WMLTRKQFGLLSFFFAVLHAHYSL [I21H] yielded a protein stability index of 3.26.
WMLTRKQFGLLSFFFAVLHAQYSL [I21Q] gave a protein stability index of 1.61.
